Laboratory results from US20240209099A1.
Where two headings read alike, the source gives them in different places.

What was measured:
[1] = molecular target: Recombinant Rhesus macaque VEGFR2/KDR Protein, His tag (rhesus macaque); assay: ELISA, rhesus VEGFR2-his coated, anti-human Fc-HRP
[2] = molecular target: Recombinant Human VEGFR2/KDR Protein, His tag (hVEGFR2-his) (human) (UniProt P35968); assay: ELISA, human VEGFR2-his coated, anti-human Fc-HRP
[3] = molecular target: Recombinant Rhesus macaque VEGFR2/KDR Protein, His tag (rhesus macaque); assay: ELISA, rhesus VEGFR2-his coated, anti-human Fc-HRP; remark: listed apart in the source
[4] = molecular target: Recombinant Human VEGFR2/KDR Protein, His tag (hVEGFR2-his) (human) (UniProt P35968); assay: ELISA, hVEGFR2-his coated (0.5 ug/ml), anti-human Fc-HRP
[5] = molecular target: human VEGFR2 on HUVEC cells (human) (UniProt P35968); assay: flow cytometry on HUVEC cells, MFI, anti-human IgG (H+L)-PE
Chain of human VEGFR2 on HUVEC cells (human) (P35968 20-1356 V297I/Q472H limits assumed): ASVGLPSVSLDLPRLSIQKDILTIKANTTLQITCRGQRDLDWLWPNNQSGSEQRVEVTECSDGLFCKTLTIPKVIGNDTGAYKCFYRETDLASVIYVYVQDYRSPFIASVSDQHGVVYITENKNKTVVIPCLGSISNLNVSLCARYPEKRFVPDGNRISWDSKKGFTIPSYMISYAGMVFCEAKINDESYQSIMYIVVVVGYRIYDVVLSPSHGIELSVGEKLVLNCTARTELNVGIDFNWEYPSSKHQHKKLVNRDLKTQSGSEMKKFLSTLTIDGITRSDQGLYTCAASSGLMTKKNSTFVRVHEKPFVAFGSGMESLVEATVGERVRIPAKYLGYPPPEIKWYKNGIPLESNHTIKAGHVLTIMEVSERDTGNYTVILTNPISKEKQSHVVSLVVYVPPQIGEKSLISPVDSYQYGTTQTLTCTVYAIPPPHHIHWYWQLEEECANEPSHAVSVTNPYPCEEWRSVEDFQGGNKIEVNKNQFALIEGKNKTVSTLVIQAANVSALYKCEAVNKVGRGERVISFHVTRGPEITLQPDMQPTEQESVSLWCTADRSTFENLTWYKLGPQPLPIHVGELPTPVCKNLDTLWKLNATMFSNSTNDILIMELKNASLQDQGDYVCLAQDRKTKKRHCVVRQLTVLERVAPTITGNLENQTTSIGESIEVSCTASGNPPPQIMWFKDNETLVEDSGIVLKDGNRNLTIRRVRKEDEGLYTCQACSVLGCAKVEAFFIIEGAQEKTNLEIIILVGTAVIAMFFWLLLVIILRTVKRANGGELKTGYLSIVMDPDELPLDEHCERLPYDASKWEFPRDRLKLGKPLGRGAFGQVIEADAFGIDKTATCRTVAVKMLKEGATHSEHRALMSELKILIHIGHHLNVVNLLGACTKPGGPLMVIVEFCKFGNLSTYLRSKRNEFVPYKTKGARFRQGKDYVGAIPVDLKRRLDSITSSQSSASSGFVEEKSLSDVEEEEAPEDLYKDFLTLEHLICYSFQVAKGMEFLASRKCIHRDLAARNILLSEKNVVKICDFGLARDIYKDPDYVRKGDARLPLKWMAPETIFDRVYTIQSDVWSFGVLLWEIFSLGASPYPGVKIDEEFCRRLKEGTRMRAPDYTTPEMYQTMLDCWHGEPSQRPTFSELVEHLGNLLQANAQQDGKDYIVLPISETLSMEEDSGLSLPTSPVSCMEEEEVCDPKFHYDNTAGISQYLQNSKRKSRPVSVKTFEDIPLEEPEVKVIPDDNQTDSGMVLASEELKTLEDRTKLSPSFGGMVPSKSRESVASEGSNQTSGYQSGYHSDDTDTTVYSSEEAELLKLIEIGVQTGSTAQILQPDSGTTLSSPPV

[6] = molecular target: human VEGFR2 on HUVEC cells (human) (UniProt P35968); assay: flow cytometry on HUVEC cells, percent shifted cells (Shift %), anti-human IgG-PE
[7] = molecular target: Recombinant Human VEGFR2/KDR Protein, His tag (hVEGFR2-his) (human) (UniProt P35968); assay: competition ELISA: hVEGFR2-his coated (1 ug/ml), antibody titrated, then 0.3 ug/ml hVEGF-A added and bound VEGF-A detected; blocked ligand hVEGF-A
[8] = molecular target: Recombinant Human VEGFR2/KDR Protein, His tag (hVEGFR2-his) (human) (UniProt P35968); assay: competition ELISA: VEGF-A coated (0.25 ug/ml), antibody mixed with VEGFR2, detection with mouse anti-VEGFR2 serum and anti-mouse Fc-HRP; blocked ligand VEGF-A
[9] = molecular target: Recombinant Human VEGFR2/KDR Protein, His tag (hVEGFR2-his) (human) (UniProt P35968); assay: competition ELISA: VEGF-A coated (0.25 ug/ml), antibody titrated together with 1 ug/ml human VEGFR2, detection with mouse anti-VEGFR2 serum and anti-mouse Fc-HRP; blocked ligand VEGF-A
[10] = molecular target: Recombinant Rhesus macaque VEGFR2/KDR Protein, His tag (rhesus macaque); assay: competition ELISA: VEGF-A coated (0.25 ug/ml), antibody titrated together with 1 ug/ml rhesus VEGFR2, detection with mouse anti-VEGFR2 serum and anti-mouse Fc-HRP; blocked ligand VEGF-A

Chain of Recombinant Human VEGFR2/KDR Protein, His tag (hVEGFR2-his) (human) (P35968 other isoform, or with tags, fused parts or gaps): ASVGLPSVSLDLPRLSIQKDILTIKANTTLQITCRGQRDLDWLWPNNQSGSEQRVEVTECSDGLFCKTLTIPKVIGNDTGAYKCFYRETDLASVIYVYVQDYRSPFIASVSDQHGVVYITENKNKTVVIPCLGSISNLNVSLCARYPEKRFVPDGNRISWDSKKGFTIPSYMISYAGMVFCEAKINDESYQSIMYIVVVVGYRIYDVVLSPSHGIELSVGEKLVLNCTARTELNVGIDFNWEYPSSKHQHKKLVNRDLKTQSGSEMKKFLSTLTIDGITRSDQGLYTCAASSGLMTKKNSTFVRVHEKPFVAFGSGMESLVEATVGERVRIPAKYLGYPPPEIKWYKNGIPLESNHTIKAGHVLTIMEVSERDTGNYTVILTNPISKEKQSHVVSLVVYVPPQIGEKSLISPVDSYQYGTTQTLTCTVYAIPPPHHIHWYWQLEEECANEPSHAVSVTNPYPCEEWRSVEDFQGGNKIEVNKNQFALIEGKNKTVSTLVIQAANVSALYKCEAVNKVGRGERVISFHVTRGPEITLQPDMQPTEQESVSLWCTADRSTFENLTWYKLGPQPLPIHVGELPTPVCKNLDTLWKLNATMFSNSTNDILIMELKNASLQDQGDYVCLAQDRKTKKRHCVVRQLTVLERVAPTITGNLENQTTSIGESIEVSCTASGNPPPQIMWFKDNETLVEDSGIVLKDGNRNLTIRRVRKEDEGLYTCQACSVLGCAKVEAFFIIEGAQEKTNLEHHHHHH
Chain of Recombinant Rhesus macaque VEGFR2/KDR Protein, His tag (rhesus macaque) (chain, as listed by the source): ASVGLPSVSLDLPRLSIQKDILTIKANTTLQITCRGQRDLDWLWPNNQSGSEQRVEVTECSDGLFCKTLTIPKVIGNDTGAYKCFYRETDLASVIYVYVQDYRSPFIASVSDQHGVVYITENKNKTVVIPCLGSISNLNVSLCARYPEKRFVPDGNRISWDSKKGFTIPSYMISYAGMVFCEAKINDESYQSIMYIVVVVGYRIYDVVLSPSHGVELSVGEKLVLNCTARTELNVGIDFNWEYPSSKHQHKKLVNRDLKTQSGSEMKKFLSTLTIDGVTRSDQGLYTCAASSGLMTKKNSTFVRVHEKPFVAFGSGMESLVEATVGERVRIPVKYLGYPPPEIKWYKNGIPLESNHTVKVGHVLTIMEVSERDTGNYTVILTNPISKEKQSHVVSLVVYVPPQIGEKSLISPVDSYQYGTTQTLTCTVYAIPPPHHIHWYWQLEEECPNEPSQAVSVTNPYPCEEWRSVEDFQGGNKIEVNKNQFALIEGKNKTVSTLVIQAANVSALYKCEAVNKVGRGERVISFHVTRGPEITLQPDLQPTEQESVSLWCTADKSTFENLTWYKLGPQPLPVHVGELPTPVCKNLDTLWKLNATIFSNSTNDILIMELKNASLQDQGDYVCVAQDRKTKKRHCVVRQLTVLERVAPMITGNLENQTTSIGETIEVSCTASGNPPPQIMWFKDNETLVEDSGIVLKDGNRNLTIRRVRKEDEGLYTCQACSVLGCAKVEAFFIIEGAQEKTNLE

EC50 [1]: 0.0088 µg/mL
EC50 [2]: 0.00871 µg/mL
EC50 [3]: 0.00919 µg/mL
EC50 [4]: 0.00926 µg/mL
EC50 (read off the curve) [5]: 0.1 µg/mL
EC50 [6]: 0.0682 µg/mL
IC50 [7]: 0.0285 µg/mL
IC50 [8]: 0.126 µg/mL
IC50 [9]: 0.849 µg/mL
IC50 [10]: 0.805 µg/mL
Substance: 1121B (benchmark antibody, Ramucirumab)
